For the experiment, the target named is 6x His-p10 (pRSF duet, first multiple cloning site) (Sesbania mosaic virus).

“And” between values parts separate entries of the source, which are not always exact repeats. Equal entries are not always repeated.

On to “untagged SeMV RdRp (pRSF duet) (domain or fragment)”, for which the in vitro RdRp assay (incorporation of αP32 UTP, filter binding, 2 μg protein, 30 °C, 1 h): activity of the RdRp-p10 complex against RdRp alone is 5 fold and 6 fold.

Source of the values: paper PMC4050190.
